For test [1], the target named is ADAMTS-5 (Homo sapiens (Human)) (UniProt Q9UNA0). Briefly: GST-IGD-FLAG substrate assay, Ki(app).
Test [2] addresses T1, ADAMTS-4 (as used in Example 4; form not stated) (Homo sapiens (Human)) (UniProt O75173).
T1 sequence: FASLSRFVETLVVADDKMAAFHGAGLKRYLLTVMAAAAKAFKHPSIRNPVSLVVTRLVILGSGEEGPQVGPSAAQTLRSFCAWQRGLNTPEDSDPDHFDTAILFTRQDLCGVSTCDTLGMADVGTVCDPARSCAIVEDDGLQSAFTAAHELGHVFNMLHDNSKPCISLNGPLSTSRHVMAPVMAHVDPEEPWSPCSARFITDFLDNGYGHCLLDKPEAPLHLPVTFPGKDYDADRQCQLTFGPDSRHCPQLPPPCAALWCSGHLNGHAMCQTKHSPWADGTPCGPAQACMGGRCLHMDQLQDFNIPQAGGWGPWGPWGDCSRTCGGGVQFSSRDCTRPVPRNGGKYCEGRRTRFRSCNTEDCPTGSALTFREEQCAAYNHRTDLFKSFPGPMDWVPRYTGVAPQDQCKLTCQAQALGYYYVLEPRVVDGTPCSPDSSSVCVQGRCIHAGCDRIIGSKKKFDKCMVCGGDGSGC
Description: GST-IGD-FLAG substrate assay, Ki(app).

Test [3] has as its target full-length collagenase 1 (MMP-1) (Homo sapiens (Human)) (UniProt P03956). Description: MMP-1 inhibition under the conditions used for TACE activity measurements.
Target sequence in this assay (P03956 100-469 limits assumed): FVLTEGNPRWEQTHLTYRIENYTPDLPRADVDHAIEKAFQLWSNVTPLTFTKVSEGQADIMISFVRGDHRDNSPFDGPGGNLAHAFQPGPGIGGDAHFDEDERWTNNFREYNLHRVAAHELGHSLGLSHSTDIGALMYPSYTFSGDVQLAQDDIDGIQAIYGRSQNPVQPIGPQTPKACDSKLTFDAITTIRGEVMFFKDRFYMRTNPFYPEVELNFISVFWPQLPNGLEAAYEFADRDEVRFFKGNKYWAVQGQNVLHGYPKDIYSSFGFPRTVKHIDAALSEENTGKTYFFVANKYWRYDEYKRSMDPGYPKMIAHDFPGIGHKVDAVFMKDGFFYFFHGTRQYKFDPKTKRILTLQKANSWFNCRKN
Test [4] has the same target. Description: enzyme inhibition kinetics, Ki(app), 5 nM MMP-1.
The target of test [5] is gelatinase A (MMP-2) (Homo sapiens (Human)) (UniProt P08253). Briefly: enzyme inhibition kinetics, Ki(app), 1 nM MMP-2.
For test [6], the target named is catalytic domain of membrane-type 1 MMP (MMP-14(CD)) (Homo sapiens (Human)) (UniProt P50281). Description: enzyme inhibition kinetics, Ki(app), 5 nM MMP-14(CD).
Test [7] concerns the target soluble form of TACE in which the transmembrane and C-terminal cytoplasmic domains are deleted (TACE R651) (human) (UniProt P78536). Briefly: TACE inhibition kinetics, Ki(app), pH 9.0, fit with equation 3 (cooperative).
The target in test [8] is T2, recombinant human ADAMTS-4 lacking the C-terminal spacer domain (human) (UniProt O75173).
T2 sequence: T1 sequence
Briefly: inhibition of aggrecan cleavage by 0.5 nM ADAMTS-4, anti-GELE Western blot, densitometry. In general terms: A western blot detects proteins with antibodies after separation by electrophoresis.

The target in test [9] is gelatinase A (MMP-2) (Homo sapiens (Human)) (UniProt P08253). Description: enzyme inhibition kinetics, Ki(app), as in Example 1.
For test [10], the target named is full-length collagenase 1 (MMP-1) (Homo sapiens (Human)) (UniProt P03956). The test is described as above.
The target of test [11] is catalytic domain of stromelysin 1 (MMP-3(ΔC)) (Homo sapiens (Human)) (UniProt P08254). The test is described as above.
For test [12] the target is unchanged. Description: enzyme inhibition kinetics, Ki(app), 1 nM MMP-3(ΔC).
Test [13] concerns the target soluble form of TACE in which the transmembrane and C-terminal cytoplasmic domains are deleted (TACE R651) (human) (UniProt P78536). Briefly: TACE inhibition kinetics at pH 7.5.

Chain of (-1A)N-TIMP-3 (chain): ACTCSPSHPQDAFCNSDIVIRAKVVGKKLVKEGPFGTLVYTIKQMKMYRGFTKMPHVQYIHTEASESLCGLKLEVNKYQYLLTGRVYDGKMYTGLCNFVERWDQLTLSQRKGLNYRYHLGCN

Turning to (-1A)N-TIMP-3, the Ki in test [1] came out at 1.9 nM; in [2], 25 nM; in [3], 412 nM; in [4], 1300 nM; in [5], 614 nM; in test [6] it was 941 nM. For the same substance, the Ki is 33.9 nM in test [7]; 18 nM in test [8]; more than 1000 nM in test [9]; more than 500 nM in [10]; more than 1000 nM in [11]; 3300 nM in [12].
With N-TIMP-3(T2G), the Ki was found to be 1.5 nM in test [1]; 20 nM in [2]; 46 nM in [13]; 547 nM in test [4]; 4200 nM in test [5]; 2300 nM in [6]. Further, the Ki in test [7] was 35.6 nM; in [8] it was 15 nM; in test [9], more than 1000 nM; in [10], more than 500 nM; in test [11], more than 1000 nM; in [12], more than 10000 nM.

The values above are taken from patent US20090318342A1, “Compounds” (IMPERIAL INNOVATIONS LIMITED, priority 2005, published 2009).
